How the values were obtained:
[1] = biological target: T1, N末端FLAG−tag付加型カニクイザルROBO4 cynoROBO4−1 (cynomolgus monkey, UniProt Q8WZ75 28-1007 (human entry)); assay: flow cytometry, transfected HEK293 cells, 10 μg/mL
T1 construct: also called pCI−FLAG−cynoROBO4−1
T1 chain: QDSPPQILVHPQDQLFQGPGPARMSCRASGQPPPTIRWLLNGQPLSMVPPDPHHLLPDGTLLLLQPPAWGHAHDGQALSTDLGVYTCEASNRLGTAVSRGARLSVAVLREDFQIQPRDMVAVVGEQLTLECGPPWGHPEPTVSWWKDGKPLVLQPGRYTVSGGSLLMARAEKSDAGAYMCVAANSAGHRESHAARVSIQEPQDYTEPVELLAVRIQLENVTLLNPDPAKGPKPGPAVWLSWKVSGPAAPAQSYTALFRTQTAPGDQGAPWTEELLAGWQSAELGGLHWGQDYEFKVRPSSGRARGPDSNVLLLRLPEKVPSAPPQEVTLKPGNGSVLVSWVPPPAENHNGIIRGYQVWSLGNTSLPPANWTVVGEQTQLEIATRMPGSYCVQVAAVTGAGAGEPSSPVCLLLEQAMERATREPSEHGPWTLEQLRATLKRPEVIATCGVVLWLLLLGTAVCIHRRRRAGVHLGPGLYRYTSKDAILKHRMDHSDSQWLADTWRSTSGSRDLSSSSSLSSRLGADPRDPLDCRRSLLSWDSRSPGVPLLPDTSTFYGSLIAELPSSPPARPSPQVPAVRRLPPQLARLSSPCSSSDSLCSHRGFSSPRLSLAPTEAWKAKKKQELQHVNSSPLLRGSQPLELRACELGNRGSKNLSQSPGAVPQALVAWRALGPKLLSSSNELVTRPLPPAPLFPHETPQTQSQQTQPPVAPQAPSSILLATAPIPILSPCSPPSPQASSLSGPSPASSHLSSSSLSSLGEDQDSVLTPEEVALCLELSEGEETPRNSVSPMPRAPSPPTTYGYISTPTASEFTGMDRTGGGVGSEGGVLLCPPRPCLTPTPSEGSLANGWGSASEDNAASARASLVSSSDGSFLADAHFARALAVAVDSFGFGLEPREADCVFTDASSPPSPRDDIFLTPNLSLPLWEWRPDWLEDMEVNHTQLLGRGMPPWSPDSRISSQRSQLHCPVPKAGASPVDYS

[2] = biological target: T2, N末端FLAG−tag付加型ヒトROBO4細胞外領域ドメイン欠損体 hROBO4−132 (human, UniProt Q8WZ75 132-1007); assay: flow cytometry, transfected HEK293 cells, 10 μg/mL
T2 construct: On HEK293 cells; also called pCI−FLAG−hROBO4−132; pCI−hROBO4−132
T2 sequence: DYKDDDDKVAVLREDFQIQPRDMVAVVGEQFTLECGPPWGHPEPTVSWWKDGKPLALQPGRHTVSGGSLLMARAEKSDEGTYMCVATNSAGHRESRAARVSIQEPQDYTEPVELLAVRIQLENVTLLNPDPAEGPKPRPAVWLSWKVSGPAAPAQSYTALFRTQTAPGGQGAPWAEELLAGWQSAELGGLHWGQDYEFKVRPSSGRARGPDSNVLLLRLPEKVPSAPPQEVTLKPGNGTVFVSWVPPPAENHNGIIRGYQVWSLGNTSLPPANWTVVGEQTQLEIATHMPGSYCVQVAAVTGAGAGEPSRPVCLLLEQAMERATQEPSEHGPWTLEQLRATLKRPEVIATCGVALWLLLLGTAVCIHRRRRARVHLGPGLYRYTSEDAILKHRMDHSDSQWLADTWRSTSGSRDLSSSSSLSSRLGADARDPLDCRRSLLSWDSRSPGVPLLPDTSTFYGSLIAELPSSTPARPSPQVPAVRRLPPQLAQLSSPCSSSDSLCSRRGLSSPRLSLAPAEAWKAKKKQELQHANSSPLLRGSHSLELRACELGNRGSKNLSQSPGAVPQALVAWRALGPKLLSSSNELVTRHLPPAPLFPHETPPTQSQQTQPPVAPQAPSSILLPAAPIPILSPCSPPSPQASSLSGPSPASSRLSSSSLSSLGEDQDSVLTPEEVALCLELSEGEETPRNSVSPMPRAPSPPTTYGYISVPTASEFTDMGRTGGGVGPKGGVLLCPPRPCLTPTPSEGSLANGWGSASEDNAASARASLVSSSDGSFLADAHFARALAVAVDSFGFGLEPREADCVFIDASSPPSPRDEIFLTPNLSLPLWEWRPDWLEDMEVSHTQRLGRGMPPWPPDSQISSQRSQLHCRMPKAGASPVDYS

[3] = biological target: T3, 全長ヒトROBO4 (pCI−hROBO4導入細胞) (human, UniProt Q8WZ75 28-1007); assay: flow cytometry, hybridoma supernatant on hROBO4-transfected HEK293T cells against mock cells
T3 construct: Expressed from pCI-hROBO4 on HEK293 / HEK293T cells; also called human ROBO4
T3 sequence: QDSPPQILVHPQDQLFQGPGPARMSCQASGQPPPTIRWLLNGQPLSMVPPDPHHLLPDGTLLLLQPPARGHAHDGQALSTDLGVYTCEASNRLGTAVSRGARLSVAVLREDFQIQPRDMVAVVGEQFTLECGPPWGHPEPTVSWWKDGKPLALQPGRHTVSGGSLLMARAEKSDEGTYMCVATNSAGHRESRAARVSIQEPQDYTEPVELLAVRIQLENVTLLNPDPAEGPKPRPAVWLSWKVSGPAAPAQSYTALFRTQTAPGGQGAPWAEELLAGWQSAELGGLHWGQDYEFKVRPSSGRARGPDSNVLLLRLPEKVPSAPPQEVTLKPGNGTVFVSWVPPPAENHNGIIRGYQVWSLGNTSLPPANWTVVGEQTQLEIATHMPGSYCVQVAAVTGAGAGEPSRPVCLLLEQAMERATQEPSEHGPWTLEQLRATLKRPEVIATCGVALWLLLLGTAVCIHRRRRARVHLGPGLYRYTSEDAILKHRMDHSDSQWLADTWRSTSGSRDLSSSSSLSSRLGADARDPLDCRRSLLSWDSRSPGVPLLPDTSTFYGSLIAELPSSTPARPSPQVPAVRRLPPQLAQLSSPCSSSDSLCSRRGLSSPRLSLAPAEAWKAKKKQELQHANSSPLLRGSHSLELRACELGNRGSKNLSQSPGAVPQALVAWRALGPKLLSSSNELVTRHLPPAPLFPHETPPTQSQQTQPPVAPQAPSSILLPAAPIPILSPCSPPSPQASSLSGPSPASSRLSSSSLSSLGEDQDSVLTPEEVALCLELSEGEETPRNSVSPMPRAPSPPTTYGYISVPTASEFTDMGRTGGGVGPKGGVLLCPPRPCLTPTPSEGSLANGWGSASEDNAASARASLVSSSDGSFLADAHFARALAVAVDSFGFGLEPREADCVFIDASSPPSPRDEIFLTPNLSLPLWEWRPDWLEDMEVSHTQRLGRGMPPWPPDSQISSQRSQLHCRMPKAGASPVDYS

Measured: binding result

B1: 抗ROBO4マウスモノクローナル抗体 MAb1 (antibody, V domains shown)
VH: EVQLVESGGGLVKPGGSLKLSCAASGFTFSTYAMSWVRQTPEKRLEWVATISNGGTYTYYPDSVKGRFTISRDNAENTLYLQMSSLRSEDTAMYFCARLIYYDYLDYWGHGTTLTVSS
VL: DAVMTQTPLSLPVSLGDQASISCRSSQSLENSNGNTYLNWYFQKPGQSPQLLIYRVSNRFSGVLDRFSGSGSGTDFTLKISRVEAEDFGVYFCLQVTHVPWTFGGGTKLEIKR
notes: Mouse IgG1 (gamma 1) / kappa from a hybridoma; The constant regions are not in the listing; also called MAb1
binds: [1] | [2] | [3]
